This experiment addresses T1, CK2α-AT, autotransporter fusion protein with the human protein kinase CK2 α-subunit as passenger domain (human, UniProt P68400 2-391).
T1 sequence (looked up): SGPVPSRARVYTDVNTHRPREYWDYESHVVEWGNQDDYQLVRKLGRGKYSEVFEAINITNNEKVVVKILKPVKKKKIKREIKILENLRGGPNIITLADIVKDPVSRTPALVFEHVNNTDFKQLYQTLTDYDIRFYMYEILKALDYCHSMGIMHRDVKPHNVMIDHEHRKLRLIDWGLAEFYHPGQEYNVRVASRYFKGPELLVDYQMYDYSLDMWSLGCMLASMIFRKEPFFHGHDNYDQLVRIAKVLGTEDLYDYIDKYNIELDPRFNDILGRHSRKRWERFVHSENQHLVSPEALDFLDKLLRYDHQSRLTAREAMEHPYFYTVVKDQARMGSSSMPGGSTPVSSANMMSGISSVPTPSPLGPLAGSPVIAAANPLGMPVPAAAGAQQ
The experiment can be described thus: cell-based or functional assay.

Some results are limits rather than exact numbers.

B1: CK2β-AT, autotransporter fusion protein with the human protein kinase CK2 β-subunit as passenger domain (natural protein)
chain: not shown
For B1, the “radiometric whole-cell kinase activity normalised to the expression level of CK2α-AT, cells co-displaying both subunits against cells displaying CK2α alone” value is over 5 fold.

These data come from PMC4451881, “Functional display of heterotetrameric human protein kinase CK2 on Escherichia coli: a novel tool for drug discovery” (Microbial Cell Factories, 2015).
